# Data from patent EP1354598A2 (ZymoGenetics, Inc., dated 2003).
# B1: BCMA (SEQ ID NO:8) (receptor)
# chain: MLQMAGQCSQNEYFDSLLHACIPCQLRCSSNTPPLTCQRYCNASVTNSVKGTNAILWTCLGLSLIISLAVFVLMFLLRKISSEPLKDEFKNTGSGLLGMANIDLEKSRTGDEIILPRGLEYTVEECTCEDCIKSKPKVDSDHCFPLPAMEEGATILVTTKTNDYCKSLPAALSATEIEKSISAR
# notes: also called BCMA-BHK
# B2: TACI-Ig soluble receptor (TACI-Fc4 fusion protein) (Fc fusion, part only; not given: Fc4 part, part only)
# chain, part: MSGLGRSRRGGRSRVDQEERFPQGLWTGVAMRSCPEEQYWDPLLGTCMSCKTICNHQSQRTCAAFCRSLSCRKEQGKFYDHLLRDCISCASICGQHPKQCAYFCENKLRSPVNLPPELRRQRSGEVENNSDNSGRYQGLEHRGSEASPALPGLKLSADQVALVYS
# Columns and labels:
# soluble I^125-ztnf4 = target: T1, soluble I^125-ztnf4 (human, UniProt Q9Y275 134-285, limits assumed, 125I-labelled); experiment: Scatchard analysis of soluble 125I-ztnf4 on stable BHK transfectants expressing BCMA
# T1 construct: also called ztnf4 sol; neutrokine alpha
# T1 sequence (Q9Y275 134-285 limits assumed): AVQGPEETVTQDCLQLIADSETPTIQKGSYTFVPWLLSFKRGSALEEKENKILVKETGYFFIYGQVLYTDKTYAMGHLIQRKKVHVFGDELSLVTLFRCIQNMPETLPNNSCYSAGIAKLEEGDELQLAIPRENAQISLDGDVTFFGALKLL
# soluble ztnf4 (human) = soluble ztnf4 (human) (UniProt Q9Y275); experiment: cell-based or functional assay
# Chain of soluble ztnf4 (human) (Q9Y275 134-285 limits assumed): as above
Binder,Kd (soluble I^125-ztnf4) [nM],"inhibition of soluble ztnf4-stimulated human B cell proliferation (3H thymidine, with IL-4) (fold molar excess) (soluble ztnf4 (human))"
B1,1.25,
B2,,10
